# B1: EEHEE_rd4_0469 (parent)
# chain: ITIHVNGVTYHFDNPEEAEKFAQKMAKTYQLKMEIHNGEFHME
# Variants of: B1
# Experiment: folding stability dG (cDNA display proteolysis); higher = more stable
# Conditions: PBS, room temperature
row,Variant,folding stability dG [kcal/mol]
1,ITIHVNGVTYHFDNPEEAEKFAQKMAKTYQLKDEIHNGEFHME [M33D],0.558
2,ITIHVNGVTYHFDNPEEAEKFAQKMAKTYQLKKEIHNGEFHME [M33K],-0.407
3,ITIHVNGVTYHFDNPEEAEKFAQKMAKTYQLKSEIHNGEFHME [M33S],0.431
4,ITIHVNGVTYHFDNPEEAEKFAQKMAKTYQLKFEIHNGEFHME [M33F],1.18
5,ITIHVNGVTYHFDNPEEAEKFAQKMAKTYQLKPEIHNGEFHME [M33P],0.368
6,ITIHVNGVTYHFDNPEEAEKFAQKMAKTYQLKYEIHNGEFHME [M33Y],1.11
7,ITIHVNGVTYHFDNPEEAEKFAQKMAKTYQLKLEIHNGEFHME [M33L],1.43
8,ITIHVNGVTYHFDNPEEAEKFAQKMAKTYQLKVEIHNGEFHME [M33V],1.46
9,ITIHVNGVTYHFDNPEEAEKFAQKMAKTYQLKIEIHNGEFHME [M33I],1.6
10,ITIHVNGVTYHFDNPEEAEKFAQKMAKTYQLKQEIHNGEFHME [M33Q],0.352
11,ITIHVNGVTYHFDNPEEAEKFAQKMAKTYQLKHEIHNGEFHME [M33H],0.293
12,ITIHVNGVTYHFDNPEEAEKFAQKMAKTYQLKWEIHNGEFHME [M33W],1.36
13,ITIHVNGVTYHFDNPEEAEKFAQKMAKTYQLKAEIHNGEFHME [M33A],0.574
14,ITIHVNGVTYHFDNPEEAEKFAQKMAKTYQLKGEIHNGEFHME [M33G],0.452
15,ITIHVNGVTYHFDNPEEAEKFAQKMAKTYQLKNEIHNGEFHME [M33N],0.297
16,ITIHVNGVTYHFDNPEEAEKFAQKMAKTYQLKTEIHNGEFHME [M33T],0.664
17,ITIHVNGVTYHFDNPEEAEKFAQKMAKTYQLKEEIHNGEFHME [M33E],0.678
18,ITIHVNGVTYHFDNPEEAEKFAQKMAKTYQLKCEIHNGEFHME [M33C],2.62
19,ITIHVNGVTYHFDNPEEAEKFAQKMAKTYVLKMEIHNGEFHME [Q30V],0.688
20,ITIHVNGVTYHFDNPEEAEKFAQKMAKTYPLKMEIHNGEFHME [Q30P],1.53
21,ITIHVNGVTYHFDNPEEAEKFAQKMAKTYKLKMEIHNGEFHME [Q30K],1.12
22,ITIHVNGVTYHFDNPEEAEKFAQKMAKTYNLKMEIHNGEFHME [Q30N],1.17
23,ITIHVNGVTYHFDNPEEAEKFAQKMAKTYMLKMEIHNGEFHME [Q30M],0.881
24,ITIHVNGVTYHFDNPEEAEKFAQKMAKTYYLKMEIHNGEFHME [Q30Y],1.14

row,Variant,folding stability dG [kcal/mol]
1,ITIHVNGVTYHFDNPEEAEKFAQKMAKTYALKMEIHNGEFHME [Q30A],1.02
2,ITIHVNGVTYHFDNPEEAEKFAQKMAKTYILKMEIHNGEFHME [Q30I],0.708
3,ITIHVNGVTYHFDNPEEAEKFAQKMAKTYFLKMEIHNGEFHME [Q30F],1.14
4,ITIHVNGVTYHFDNPEEAEKFAQKMAKTYRLKMEIHNGEFHME [Q30R],0.814
5,ITIHVNGVTYHFDNPEEAEKFAQKMAKTYSLKMEIHNGEFHME [Q30S],0.808
6,ITIHVNGVTYHFDNPEEAEKFAQKMAKTYTLKMEIHNGEFHME [Q30T],0.699
7,ITIHVNGVTYHFDNPEEAEKFAQKMAKTYELKMEIHNGEFHME [Q30E],1.21
8,ITIHVNGVTYHFDNPEEAEKFAQKMAKTYLLKMEIHNGEFHME [Q30L],0.853
9,ITIHVNGVTYHFDNPEEAEKFAQKMAKTYHLKMEIHNGEFHME [Q30H],1.43
10,ITIHVNGVTYHFDNPEEAEKFAQKMAKTYGLKMEIHNGEFHME [Q30G],1.5
11,ITIHVNGVTYHFDNPEEAEKFAQKMAKTYWLKMEIHNGEFHME [Q30W],1.11
12,ITIHVNGVTYHFDNPEEAEKFAQKMAKTYDLKMEIHNGEFHME [Q30D],1.08
13,ITIHVNGVTYHFDNPEEAEKFAQKMAKTYQCKMEIHNGEFHME [L31C],2.3
14,ITIHVNGVTYHFDNPEEAEKFAQKMAKTYQSKMEIHNGEFHME [L31S],0.767
15,ITIHVNGVTYHFDNPEEAEKFAQKMAKTYQVKMEIHNGEFHME [L31V],1.28
16,ITIHVNGVTYHFDNPEEAEKFAQKMAKTYQFKMEIHNGEFHME [L31F],1.1
17,ITIHVNGVTYHFDNPEEAEKFAQKMAKTYQAKMEIHNGEFHME [L31A],0.799
18,ITIHVNGVTYHFDNPEEAEKFAQKMAKTYQGKMEIHNGEFHME [L31G],1.02
19,ITIHVNGVTYHFDNPEEAEKFAQKMAKTYQRKMEIHNGEFHME [L31R],0.214
20,ITIHVNGVTYHFDNPEEAEKFAQKMAKTYQHKMEIHNGEFHME [L31H],0.984
21,ITIHVNGVTYHFDNPEEAEKFAQKMAKTYQMKMEIHNGEFHME [L31M],1.01
22,ITIHVNGVTYHFDNPEEAEKFAQKMAKTYQPKMEIHNGEFHME [L31P],1.13
23,ITIHVNGVTYHFDNPEEAEKFAQKMAKTYQNKMEIHNGEFHME [L31N],1
24,ITIHVNGVTYHFDNPEEAEKFAQKMAKTYQQKMEIHNGEFHME [L31Q],0.833

row,Variant,folding stability dG [kcal/mol]
1,ITIHVNGVTYHFDNPEEAEKFAQKMAKTYQEKMEIHNGEFHME [L31E],1.29
2,ITIHVNGVTYHFDNPEEAEKFAQKMAKTYQYKMEIHNGEFHME [L31Y],1.14
3,ITIHVNGVTYHFDNPEEAEKFAQKMAKTYQIKMEIHNGEFHME [L31I],1.15
4,ITIHVNGVTYHFDNPEEAEKFAQKMAKTYQTKMEIHNGEFHME [L31T],0.775
5,ITIHVNGVTYHFDNPEEAEKFAQKMAKTYQWKMEIHNGEFHME [L31W],0.829
6,ITIHVNGVTYHFDNPEEAEKFAQKMAKTYQKKMEIHNGEFHME [L31K],0.692
7,ITIHVNGVTYHFDNPEEAEKFAQKMAKTYQDKMEIHNGEFHME [L31D],1.3
8,ITIHVNGVTYHFDNPEEAEKFAQKMAKTYQLKMFIHNGEFHME [E34F],1.82
9,ITIHVNGVTYHFDNPEEAEKFAQKMAKTYQLKMRIHNGEFHME [E34R],1.22
10,ITIHVNGVTYHFDNPEEAEKFAQKMAKTYQLKMSIHNGEFHME [E34S],1.28
11,ITIHVNGVTYHFDNPEEAEKFAQKMAKTYQLKMCIHNGEFHME [E34C],2.43
12,ITIHVNGVTYHFDNPEEAEKFAQKMAKTYQLKMNIHNGEFHME [E34N],1.06
13,ITIHVNGVTYHFDNPEEAEKFAQKMAKTYQLKMPIHNGEFHME [E34P],0.209
14,ITIHVNGVTYHFDNPEEAEKFAQKMAKTYQLKMKIHNGEFHME [E34K],1.17
15,ITIHVNGVTYHFDNPEEAEKFAQKMAKTYQLKMDIHNGEFHME [E34D],0.739
16,ITIHVNGVTYHFDNPEEAEKFAQKMAKTYQLKMHIHNGEFHME [E34H],1.41
17,ITIHVNGVTYHFDNPEEAEKFAQKMAKTYQLKMVIHNGEFHME [E34V],1.91
18,ITIHVNGVTYHFDNPEEAEKFAQKMAKTYQLKMTIHNGEFHME [E34T],1.51
19,ITIHVNGVTYHFDNPEEAEKFAQKMAKTYQLKMQIHNGEFHME [E34Q],0.991
20,ITIHVNGVTYHFDNPEEAEKFAQKMAKTYQLKMLIHNGEFHME [E34L],1.26
21,ITIHVNGVTYHFDNPEEAEKFAQKMAKTYQLKMIIHNGEFHME [E34I],1.67
22,ITIHVNGVTYHFDNPEEAEKFAQKMAKTYQLKMYIHNGEFHME [E34Y],1.78
23,ITIHVNGVTYHFDNPEEAEKFAQKMAKTYQLKMAIHNGEFHME [E34A],1.03
24,ITIHVNGVTYHFDNPEEAEKFAQKMAKTYQLKMWIHNGEFHME [E34W],1.54

row,Variant,folding stability dG [kcal/mol]
1,ITIHVNGVTYHFDNPEEAEKFAQKMAKTYQLKMMIHNGEFHME [E34M],1.33
2,ITIHVNGVTYHFDNPEEAEKFAQKMAKTYQLKMGIHNGEFHME [E34G],0.776
3,ITIHVNGVTYHFDNPEEAEKFAQKMAKTYQLKMEICNGEFHME [H36C],1.69
4,ITIHVNGVTYHFDNPEEAEKFAQKMAKTYQLKMEIANGEFHME [H36A],0.796
5,ITIHVNGVTYHFDNPEEAEKFAQKMAKTYQLKMEIFNGEFHME [H36F],1.19
6,ITIHVNGVTYHFDNPEEAEKFAQKMAKTYQLKMEIDNGEFHME [H36D],0.709
7,ITIHVNGVTYHFDNPEEAEKFAQKMAKTYQLKMEIKNGEFHME [H36K],1.28
8,ITIHVNGVTYHFDNPEEAEKFAQKMAKTYQLKMEIGNGEFHME [H36G],0.601
9,ITIHVNGVTYHFDNPEEAEKFAQKMAKTYQLKMEIINGEFHME [H36I],1.66
10,ITIHVNGVTYHFDNPEEAEKFAQKMAKTYQLKMEIENGEFHME [H36E],0.92
11,ITIHVNGVTYHFDNPEEAEKFAQKMAKTYQLMMEIHNGEFHME [K32M],1.44
12,ITIHVNGVTYHFDNPEEAEKFAQKMAKTYQLNMEIHNGEFHME [K32N],1.28
13,ITIHVNGVTYHFDNPEEAEKFAQKMAKTYQLWMEIHNGEFHME [K32W],1.54
14,ITIHVNGVTYHFDNPEEAEKFAQKMAKTYQLQMEIHNGEFHME [K32Q],1.45
15,ITIHVNGVTYHFDNPEEAEKFAQKMAKTYQLAMEIHNGEFHME [K32A],1.37
16,ITIHVNGVTYHFDNPEEAEKFAQKMAKTYQLYMEIHNGEFHME [K32Y],1.58
17,ITIHVNGVTYHFDNPEEAEKFAQKMAKTYQLIMEIHNGEFHME [K32I],1.66
18,ITIHVNGVTYHFDNPEEAEKFAQKMAKTYQLFMEIHNGEFHME [K32F],1.44
19,ITIHVNGVTYHFDNPEEAEKFAQKMAKTYQLRMEIHNGEFHME [K32R],0.848
20,ITIHVNGVTYHFDNPEEAEKFAQKMAKTYQLDMEIHNGEFHME [K32D],1.31
21,ITIHVNGVTYHFDNPEEAEKFAQKMAKTYQLLMEIHNGEFHME [K32L],1.52
22,ITIHVNGVTYHFDNPEEAEKFAQKMAKTYQLTMEIHNGEFHME [K32T],1.51
23,ITIHVNGVTYHFDNPEEAEKFAQKMAKTYQLVMEIHNGEFHME [K32V],1.62
24,ITIHVNGVTYHFDNPEEAEKFAQKMAKTYQLSMEIHNGEFHME [K32S],1.39

row,Variant,folding stability dG [kcal/mol]
1,ITIHVNGVTYHFDNPEEAEKFAQKMAKTYQLGMEIHNGEFHME [K32G],1.13
2,ITIHVNGVTYHFDNPEEAEKFAQKMAKTYQLPMEIHNGEFHME [K32P],1.09
3,ITIHVNGVTYHFDNPEEAEKFAQKMAKTYQLHMEIHNGEFHME [K32H],1.48
4,ITIHVNGVTYHFDNPEEAEKFAQKMAKTYQLEMEIHNGEFHME [K32E],1.48
5,ITIHVNGVTYHFDNPEEAEKFAQKMAKTYQLKMEGHNGEFHME [I35G],0.722
6,ITIHVNGVTYHFDNPEEAEKFAQKMAKTYQLKMERHNGEFHME [I35R],0.522
7,ITIHVNGVTYHFDNPEEAEKFAQKMAKTYQLKMEAHNGEFHME [I35A],0.721
8,ITIHVNGVTYHFDNPEEAEKFAQKMAKTYQLKMEHHNGEFHME [I35H],0.724
9,ITIHVNGVTYHFDNPEEAEKFAQKMAKTYQLKMEWHNGEFHME [I35W],1.06
10,ITIHVNGVTYHFDNPEEAEKFAQKMAKTYQLKMESHNGEFHME [I35S],0.764
11,ITIHVNGVTYHFDNPEEAEKFAQKMAKTYQLKMEMHNGEFHME [I35M],0.949
12,ITIHVNGVTYHFDNPEEAEKFAQKMAKTYQLKMELHNGEFHME [I35L],1.07
13,ITIHVNGVTYHFDNPEEAEKFAQKMAKTYQLKMEKHNGEFHME [I35K],0.644
14,ITIHVNGVTYHFDNPEEAEKFAQKMAKTYQLKMEEHNGEFHME [I35E],0.844
15,ITIHVNGVTYHFDNPEEAEKFAQKMAKTYQLKMETHNGEFHME [I35T],0.802
16,ITIHVNGVTYHFDNPEEAEKFAQKMAKTYQLKMEFHNGEFHME [I35F],1.21
17,ITIHVNGVTYHFDNPEEAEKFAQKMAKTYQLKMEPHNGEFHME [I35P],0.562
18,ITIHVNGVTYHFDNPEEAEKFAQKMAKTYQLKMENHNGEFHME [I35N],0.687
19,ITIHVNGVTYHFDNPEEAEKFAQKMAKTYQLKMEQHNGEFHME [I35Q],0.822
20,ITIHVNGVTYHFDNPEEAEKFAQKMAKTYQLKMEVHNGEFHME [I35V],1.03
21,ITIHVNGVTYHFDNPEEAEKFAQKMAKTYQLKMEYHNGEFHME [I35Y],1.24
22,ITIHVNGVTYHFDNPEEAEKFAQKMAKTYQLKMEDHNGEFHME [I35D],0.68

# From the MegaScale stability set (Tsuboyama et al. 2023)
